Assay results taken from patent publication US12415847B2, “ApoM-Fc fusion proteins for treating lung diseases” (Children's Medical Center Corporation, priority 2018, dated 2025).

Columns and labels:
S1P1 receptor [1] = target: T1, S1P1 receptor (Homo sapiens, UniProt P21453); assay: Nanobit split luciferase assay, Gi-alpha coupling; assay type: cell-based; conditions: transfected 293A cells; 1000 nM-0.3 nM S1P
T1 construct: expressed in transfected cells; host or cells: Human 293A cells, transient PEI transfection
Protocol: (§1) FIGS. 5A-5B. Nanobit analysis of Human ApoMFc-S1P, Mouse ApoMFc-S1P, or BSA-S1P (Positive Control). […] BSA-S1P is the well-established activator of the S1PR1 and it was tested whether Human ApoMFc-S1P, Mouse ApoMFc-S1P gave equivalent induction of receptor activation. Data are the means of triplicate wells with the baseline (pre-stimulation) signal subtracted from the final luciferase signal and graphs are expressed with standard deviation.
(§2) The S1P receptors are members of the G-protein coupled receptor (GPCR) superfamily. Receptor activation is characterized by immediate activation of a G-protein complex (alpha-beta-gamma) that activates multiple intracellular signaling pathways and then secondary activation of coupling to the protein beta-arrestin, which may cause receptor internalization and desensitization as well as activation of other intracellular signaling pathways. […]
(§3) There are two general forms of this assay. […] Upon activation of the GPCR, the G-Protein alpha-beta-gamma complex […] and Luciferase activity may be detected by measuring emitted light in the presence of luciferase substrate (luciferin). […] It is notable that G-Protein assay results in decreased relative fluorescence with increased receptor activation, while the Beta-arrestin coupling assay results in increased relative fluorescence with increased receptor activation. […]
Target sequence in this assay (P21453 whole entry): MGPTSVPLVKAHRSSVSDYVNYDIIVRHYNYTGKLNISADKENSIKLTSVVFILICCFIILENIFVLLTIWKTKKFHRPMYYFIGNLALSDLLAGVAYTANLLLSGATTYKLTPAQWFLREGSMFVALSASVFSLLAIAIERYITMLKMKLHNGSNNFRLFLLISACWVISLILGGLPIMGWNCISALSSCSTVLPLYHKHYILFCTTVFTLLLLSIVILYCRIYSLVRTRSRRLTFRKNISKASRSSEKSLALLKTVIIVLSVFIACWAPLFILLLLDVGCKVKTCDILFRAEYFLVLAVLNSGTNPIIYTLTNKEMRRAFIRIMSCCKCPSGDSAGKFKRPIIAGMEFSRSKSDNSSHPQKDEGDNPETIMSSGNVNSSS

S1P1 receptor [2] = target: T1, S1P1 receptor; assay: Nanobit split luciferase assay, beta-arrestin coupling; assay type: cell-based; conditions: transfected 293A cells; 1000 nM-0.3 nM S1P
Protocol: as §1, §2, §3
Target sequence in this assay (P21453 whole entry): as above
Target sequence in this assay (P49407 whole entry partner): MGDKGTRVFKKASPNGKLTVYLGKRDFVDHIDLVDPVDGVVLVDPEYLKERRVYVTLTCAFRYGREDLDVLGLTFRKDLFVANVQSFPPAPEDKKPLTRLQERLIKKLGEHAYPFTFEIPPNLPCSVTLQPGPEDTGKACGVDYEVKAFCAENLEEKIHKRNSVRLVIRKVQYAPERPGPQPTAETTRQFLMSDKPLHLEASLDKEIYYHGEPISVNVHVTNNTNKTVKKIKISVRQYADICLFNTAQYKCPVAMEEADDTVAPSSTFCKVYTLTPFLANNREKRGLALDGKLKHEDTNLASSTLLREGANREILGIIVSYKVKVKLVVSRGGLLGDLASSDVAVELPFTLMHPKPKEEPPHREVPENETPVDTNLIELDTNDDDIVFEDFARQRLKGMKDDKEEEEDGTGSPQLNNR

HUVECs = assay: Trans-endothelial electrical resistance (TEER); assay type: cell-based, human; conditions: 4 μg/well, 250 nM S1P, 6 hour time point
Protocol: FIG. 4. Human and Mouse ApoM-Fc-S1P enhanced endothelial Barrier Protection. Human ApoMFc-S1P (4 μg/well, 250 nM S1P), Mouse ApoMFc-S1P (4 μg/well, 250 nM S1P), or BSA-S1P (250 nM S1P; Positive Control) were analyzed using transepithelial/transendothelial electrical resistance (TEER). The results of TEER analysis of HUVECs at the 6 hour time point are shown. BSA-S1P is the well-established activator of the S1PR1 and it was tested whether Human ApoMFc-S1P, Mouse ApoMFc-S1P gave equivalent induction of receptor activation. All results are normalized to individual well baselines (baseline=1), expressed as the mean of triplicate wells, and Standard Deviation (S.D.) is expressed as gray vertical bars over the course of the data set. […]
0.1 ml of Human Umbilical Vascular Endothelial Cells (HUVECS; 200,000 cells/ml in EGM-2 culture medium, Lonza) were seeded into a 96 well electrical conductance chamber (ECIS Cultureware; Applied Biophysics, Inc) pre-coated with 1% Fibronectin resuspended in Saline. After overnight incubation at 37° C./5% CO2, the 96-well plate was placed on the ECIS reader (Applied Biophysics; Ztheta 96-well array station) and baseline resistance was established which represents the quality of Endothelial junction strength or Endothelial barrier function. […]

[3] = free ApoM not associated with HDL; Faber et al. 2006; cited from earlier work

B1: Mouse ApoMFc-S1P: Mouse ApoM-mouse IgG1Fc fusion (mApoM-Fc) loaded with S1P (protein)
chain: NQCPEHSQLTALGMDDTETPEPHLGLWYFIAGAAPTTEELATFDPVDNIVFNMAAGSAPRQLQLRATIRTKSGVCVPRKWTYRLTEGKGNMELRTEGRPDMKTDLFSSSCPGGIMLKETGQGYQRFLLYNRSPHPPEKCVEEFKSLTSCLDFKAFLVTPRNQEACPLSSKWISSASSAKTTPPSVYPLAPGSAAQTNSMVTLGCLVKGYFPEPVTVTWNSGSLSSGVHTFPAVLQSDLYTLSSSVTVPSSTWPSETVTCNVAHPASSTKVDKKIVPRDCGCKPCICTVPEVSSVFIFPPKPKDVLTITLTPKVTCVVVDISKDDPEVQFSWFVDDVEVHTAQTQPREEQFNSTFRSVSELPIMHQDWLNGKEFKCRVNSAAFPAPIEKTISKTKGRPKAPQVYTIPPPKEQMAKDKVSLTCMITDFFPEDITVEWQWNGQPAENYKNTQPIMDTDGSYFVYSKLNVQKSNWEAGNTFTCSVLHEGLHNHHTEKSLSHSPGK
Question: For B1, which “activation of Gi-alpha coupling to the S1P1 receptor” value (S1P1 receptor [1]) is on record?
Answer: equivalently activates

Question: And the “activation of beta-arrestin coupling to the S1P1 receptor” value (S1P1 receptor [2])?
Answer: equivalently activates

Question: And the “endothelial barrier protection (TEER)” value (HUVECs)?
Answer: enhance endothelial Barrier Protection

B2: Free ApoM: free ApoM that is not associated with HDL; 26-kDa protein (protein, UniProt O95445 1-188, looked up)
Apolipoprotein M: MFHQIWAALLYFYGIILNSIYQCPEHSQLTTLGVDGKEFPEVHLGQWYFIAGAAPTKEELATFDPVDNIVFNMAAGSAPMQLHLRATIRMKDGLCVPRKWIYHLTEGSTDLRTEGRPDMKTELFSSSCPGGIMLNETGQGYQRFLLYNRSPHPPEKCVEEFKSLTSCLDSKAFLLTPRNQEACELSNN
Question: With B2 as the molecule, how does the half-life [3] read?
Answer: extremely short
